Measurements as given in the DeepSol protein solubility set.

Assay: soluble on expression in E. coli; label from the status in PepcDB or PDB records
In the case of “MKALLSIEMDMQVPFHDVDSMGITWHGNYLRYFEVARCKLLDELGYNYRQMRASNYAWPIIDVQIKYVKPSTFEQHITVRAELVEWENRLKINYQIRDTATGERITKGYTIQAAVDMTSLEHHHHHH”, the “soluble on expression in E. coli” value is reported as “not soluble”. For “MGSSHHHHHHSSGLVPRGSHMTEIYTSVLSYRLLEGKAYSDADTRSLDRMMRSIDEFFSANPGYINFHIYRSYRTDSDVIFWYSSRNPDLMILAKERVQASMRPIAVSSFSSISIYDESPYNAMNKKLEDSLRLPPLRYFVAYPMSKTPDWYLLDFDTRKEIMHEHIKMALNHPDEKGIRSYTTYSFGIGDQEFVVLYEIPDIAAWSRVTEKLREARARKWIIKETPILLGRLVDAGDIAGFLL”, the “soluble on expression in E. coli” value was “soluble”. For “MNEIMLETKNLCKTFRQQSVVQNISLSVPKYAIYGLLGPNGAGKSTTLKMITGMLIPTSGEIYFDGHKWTRHDLHSIGALIDSPPLYENLTARENLQVRTTVLGLPKSRIDEVLHVVELENTEKKKAKDFSMGMKQRLGIAIALLNHPKFLILDEPMNGLDPFGIQELRKLILSFPGKGITVILSSHILSEVSQIADHVGIISGGVLGYQGKLNKNDDLEDLFVQVAGKYRREA”, the “soluble on expression in E. coli” value was “not soluble”. For “MGSDKIHHHHHHMGVTGNNYTKIFHRMYWDGTPTPTQLAQELSKHGLAITGISLWQLYNGTLQFPIYVATERQLKSTQWVTFHRRKQLRCCPAGVFSVEYPVLAITNLSDAQAIETLEGAYAKAQGAKFAAEHARQYVPQRNRELLRRAVVGVDSPPEKLLITALREQGIDCHANVLVGDYRWDIQLDRHRVLIEVDGFEFHRFKPENQDAFVRDRWKTNDATLRGYLCLHYAARSVYRHTAVIVDQVQAAIRVAPARGYPFDASAMWHRGCWKWS”, the “soluble on expression in E. coli” value was “not soluble”. In the case of “MARTRSADYENIRDTIIERAAAMFARQGYSETSIGDIARACECSKSRLYHYFDSKEAVLRDMLTTHVDSLLERCRQVLYGSNEPKTRFLQIVKLFLEIYATSRDRHVVMLTCLDALPEDQRKALIAKQRELIAYVRDALLQLRPDMAANRTLAHVDTMLFFGMINWTYTWYKADGSVSPDALAERTVQLFLDGYLNLLSA”, the “soluble on expression in E. coli” value is reported as “soluble”. With “MNDNEKQLDLRIRRTHKLLWDSLFELMTQSKQKYSTITINQICDRAMVHRTTFYKHFEDKDALLTFGFKRYGKMIAEIPVSDRLSKPFQVMEQFLHHEEIGKILETQMSDEQFINRTQYLSHETRKQEIEALNQLHKNHTMPNDLIIEFYSGAITSLSAWWFKSERKVSAAEMDRYLHQLINRDIFQFEKE” the “soluble on expression in E. coli” value was “not soluble”. With “MSLGHELYLVGGSVRDALLGRLSPDLDFTTDARPERVQEIVRPWADAVWDTGIEFGTVGVGKSDHRMEITTFRADSYDRVSRHPEVRFGDCLEGDLVRRDFTTNAMAVRVTATGPGEFLDPLGGLAALRAKVLDTPAAPSGSFGDDPLRMLRAARFVSQLGFAVAPRVRAAIEEMAPQLARISAERVAAELDKLLVGEDPAAGIDLMVQSGMGAVVLPEIGGMRMAIDEGHHHHHH” the “soluble on expression in E. coli” value was “not soluble”. For “MGSDKIHHHHHHLAAEIIAVTQQKGGVGKSTIAMHLGAAFHEKGKRVLVVDADGQNTLIHWASASSDGDTGIPFPVVNLSEAGSQIHREIKKFVADYDIIVVDCPPSITEKVSGVVLLAASVAVIPTSSSPADYWSSIGLVKLVQQAQLMNEDLRAVFLLNKTEEKRMLTRELKRALEELGFPLLKTQIPTREAYKQAMALGQTVLQMNDRGAKLAAIEVRACANEIAALLP”, the “soluble on expression in E. coli” value was “not soluble”. In the case of “MSDEALTLLFSAVENGDQNCIDLLCNLALRNDDLGHRVEKFLFDLFSGKRTGSSDIDKKINQACLVLHQIANNDITKDNTEWKKLHAPSRLLYMAGSATTDLSKKIGIAHKIMGDQFAQTDQEQVGVENLWCGARMLSSDELAAATQGLVQESPLLSVNYPIGLIHPTTKENILSTQLLEKIAQSGLSHNEVFLVNTGDHWLLCLFYKLAEKIKCLIFNTYYDLNENTKQEIIEAAKIAGISESDEVNFIEMNLQNNVPNGCGLFCYHTIQLLSNAGQNDPATTLREFAENFLTLSVEEQALFNTQTRRQIYEYSLQ”, the “soluble on expression in E. coli” value is reported as “not soluble”. In the case of “MDILFRIRGGFDLAFQLAPPKEMFIKNALRQVLSDLTTKLSSDALVLRVCNSSVYLWPNSDANTGELTDSSACKNVVRFIQFDQEEDTKRKFIKKKDKKLTDTQQIVNIDLMLEISTPLGAVTPILERENEEHHYINMSLPIDAVVSVAPEESWGKVRKLLVDAILRQLVDVEKCILRYMKGTSIVVPEPLHFQLPGKKNLVTVLYPSGIPDDQLQAYRKELHDLFNLPHDRPYFKRINAYHFPDELYKDGYIRNPHTYLSPPNIEGSMICVVQGTYAYHHYMQDRIDDNGWGCAYRSLQTICSWFRHQGYTERSIPTHREIQQALVDAGDKPATFVGSRQWIGSIEVQMVLNQLIGVTSKILFVNQGSEMASQGRELANHFQNVGTPVMVGGGVLAHTILGVAWNETTGQIKFLILDPHYTGAEDLQVMLEKGWCGWKSPDFWNKDAYYNLCLPQRPNAL”, the “soluble on expression in E. coli” value is reported as “soluble”. For “MGSDKIHHHHHHMNVEKLKKMKGKEKIVMVTAYDAPSARIARDAGIDVILVGDSLGNNVLGYENTIPVTMEEMLIHVAAVKRGAPDAFIVADMPFLSYQTSVEKAVENAGKFLKVGANAVKIEGGEEFGELVQKLVESGIPVMGHIGLTPQFVNRFGGYRVQGKTEKNREYLLRSARELEKRGAFAIVLELVVEEVAKEITESVSIPTIGIGSGRFCDGQVLVWHDLLGLNPDFAPRFSKKYANLYEVILKALQEFRREVKKGLFPTEEHSFTDKSKGGVSS”, the “soluble on expression in E. coli” value was “not soluble”. With “MIRQLSLKDYEGVAGSALIDEIRSLGESLQGYNVRHINSTIIGGGVAEILSSLVPLMEDVGLTVNWEVLAGTTEFFHTTKLFHNGMHGQPVNITGEMLENYLAIAQKNQNLLDGDADLVVIHDQQPLGLTAFRGRTRGRWLWYCHVDPRYAVPEVWYFLAPMVATCDAAVFHLPEYARDLPVLQYFMPPAIDPLSDKLEHHHHHH” the “soluble on expression in E. coli” value was “soluble”. In the case of “MIKHESSQPLRVAVAQCRIDWEDKHANLRRMERLAEETAGMADVLFFPEMMTTGFSMNVQALAEPFEEGETIMSLKRVTARHGLALSATMAVRENGKFYNRAYFVTPEGEVFHQDKRHLFRVGGEHEVMTPAQERRIFNYRGWKIFIIPCYDLRFPVWCTNTDLEYDLLVCMANWPEPRRAVWQTLLQARAMENYAYVCGINRVGEDGIGLRYTGDSAILSPRGEYLATCAEGEEKVLYHTLDKGAMQRFRDKFPAWMDMDSFVINYDTDLHP”, the “soluble on expression in E. coli” value is reported as “not soluble”. For “MANDIDRAGVAKAYARWAPIYDLVFGKVFDSGRQSTIAVADAIGGRVLDVGVGTGLSLSDYSKTTRLCGVDISEPMLRKAHERVRTLNLSNVDVLAVMDAKNLAFPANYFDAVVAQYVITAVPDPEATLDDFIRVLKPGGELILVNHIGAESGPRKLFELAFSPIARRLGWRPEFPWQRLVNWAARHRGVELAERRPMPPMGHFSLIRYRKLLEHHHHHH”, the “soluble on expression in E. coli” value was “not soluble”. With “MPGYAQYRSFSEDLSMNMEEIVALSVKHNVSDLHLCSAWPARWRIRGRMEAAPFDAPDVEELLREWLDDDQRAILLENGQLDFAVSLAENQRLRGSAFAQRQGISLALRLLPSHCPQLEQLGAPPVLPELLKSENGLILVTGATGSGKSTTLAAMVGYLNQHADAHILTLEDPVEYLYASQRCLIQQREIGLHCMTFASGLRAALREDPDVILLGELRDSETIRLALTAAETGHLVLATLHTRGAAQAVERLVDSFPAQEKDPVRNQLAGSLRAVLSQKLEVDKQEGRVALFELLINTPAVGNLIREGKTHQLPHVIQTGQKVGMLTFQQSYQQRVGEGRL” the “soluble on expression in E. coli” value was “not soluble”. For “MAHHHHHHMLLAIVRDLLQLFRPYAAALHPETTQVWFSVRDTPLSWLYPAGAVKDYVNECVREERAAHLSASSPSSPPLSSAAALLQSHLCTILSEPLELSFHIHSLTKGSSLARTVPLYINYDRLEEHIRMEVKQAHKAAYTVLYGNYAIYQREAESALQAAVGLALYRPFDAAAQEQLQQQRYRDPGSSGSGGAGVGNGGYSSSNSPGGGYSAPFAFTSPYLLVEYQQLLRGLLTPRPHVAYLIRIGFPFAYRGAAGRSESGYLQYDAHRVSAAPALALSVTTTEAAAAPTMEPEQLPLGLLLWRLFRAPVLRWKAQQLQQHPTDNTSPSTAAHASATVLSEVERTYQQLLRTLAPYYADPPRCATDGLEQQEPLMTSTPPEPPAWAAWERAMVQAFMRDYEERPEKCGLGFEFAEAAATSAASPNAVRRVRFMVQGIQPPLTTPGSFLEAHLSSSDRAIFVTVQV”, the “soluble on expression in E. coli” value was “not soluble”. With “MNSEQIYHVDFKQSKRIKSFHYAGGLFQLTSDGVIFVGKDKDNNELPPRWICSSLSVVAKTRDANSGEWGRLLEWVDDDGIKHQWAMPLALLQGDSSDVRRELARLGLTISPSKTARDLLASYIQVFPVEERARCVDKLGWYKEVFVTANEAIGQSLSVAGSVEDWRNSISRLADGNSRLVFAISAAFAPSLANLVGEDSGGFHFRGASSSGKTTALKVAASVWGKPDSYIRLWRSTANGLEGLAALHNDGLLILNELSQMDPKEAGECAYLLANGQGKTRASRCGTARQSMRWSLLFLSAGEESLTSLMAKAGQRCNAGQEIRLADIEADAGAEMGLFEQLHDHINPAAMSLALKEAASQYHGAVGLAWLHKIVKHRAELIALLTNKIQHFVAKVTKPEHSGQIQRVARRFALVAMAGEIATHYELTGWTRGTACNPAEKCFNAWLKDFGEHGNREDRAILSQVRAFFEKEGASRFENENHPNSERLFNRAGFFHTDSEGFRVFMVLSEVYRKEICQGFEPKMVNKVLINAGWIVPGNDGKASQKRRIKGIGIPRCYIFTEKVWSDDYLEHHHHHH” the “soluble on expression in E. coli” value was “soluble”. For “HGSYIDITIDLKHYNGSVFDLRLSDYHPVKKVIDIAWQAQSVSMPPREGHWIRVVNKDKVFSGECKLSDCGITNGDRLEIL”, the “soluble on expression in E. coli” value was “soluble”. For “MTAPSLDNWEKRKRFVELPRKRQMAFIDTGGPGPVLLMLHGFSDTSRSFSIIEPYFQEYRLIAPDLPGHGASSVGHGFHVADFAETIDRFLTLMGVSRFFVLGHSMGAMTAIELAARRSSSVRGLALISGTLEPDFGTESKLARDILALRDPIKPAGGFLHDWYSCSRPVNEEFLFRMKRDAANMAATTWHGVLKAFAETDLHYSASKINVPVLCLAGSEDPLFDDSHRQQLFEAFPLAQTVTMPGHGHNPHWENPQGVSTLVTEFFAEVMTDASPVRVETAADKR”, the “soluble on expression in E. coli” value was “not soluble”. With “MKAYIQVKQVGKRKCSIEKMPIDFPTPPASVQELIEAVVCWQVKEYNERLQQSEMLKYLTCEEMEDKAAAGKVGFEANYNGRPAVETEAIINALQSYEDGIFRIFLDDAELGELSSSVQLKEESTLTFIRLAMLSGRLW” the “soluble on expression in E. coli” value was “not soluble”. With “MIIRNVRILICMNTIYYEAHNNLYLNLTNRCSADCIFCIRNFADGVYGYNLRLSKEPSTEEIIEALEGLDLSKYREIVFTGLGEPTLRLDVVLAVTRWLKNQGLRVRLDTNGHAALINPKLDVIAELKKAGLDSVSVSLNAESEEKYNKLCRPVHKNAYRAMLDFVRGAKEAGISTRVTVVKIPEIDVEKCRKVSEELGSDFHIRLLSEAASQEIRE” the “soluble on expression in E. coli” value was “not soluble”. In the case of “MSLSALFCQAAAVAVTISGFAFSPAQTTVQVGDVITWTNMDNTLHSIVSTAVPAGAAPFTSGTFGKNETFTYTVTEAGDYTYQCGVHTSMLGAFTATITTPVVKPTLILEALYPNPASASIHIESPKSIKSIDIYSETGVLVKTLAFTSASVDVPIGELNKGAYLLRITSEDGMFDTRRIIKEGHHHHHH”, the “soluble on expression in E. coli” value is reported as “soluble”. For “MGSDKIHHHHHHMKIGIITICKVNNYGAELQAFATQKKLEQMGHNAEIINYLYYKDWHFKDTPLSQPFVPLDMKGKLSYWIKYRLMSWVVNKVLPIFNGNMRRRLHNYQSFIDSERFSAQYKSMDELYKTYPKYDIYMVGSDQVWNPSASSSIEPYFLTFAPKNAPKVTYASSFGVASIAPNLSKRYAKLLNNLDTIAVREQSGVELVKQLTGREAKLVVDPTLLLSKADWEPYMKPLAKISTQYILIYQLFPSQTVIDVALKIGKEKNLPVYNICKRAYGMKKIVGINNILDAGPSEFLWLIANATCMVTNSFHGTAFSVNFATPFCCVLNRKRKNNGRMISFLDKVDMSNRILYEDSIAELNVMTACSEVTNNHLRLLVNNSIDYLKSIIENKEQKC”, the “soluble on expression in E. coli” value was “not soluble”.
